Reference: US20230270119A1, “BIOSTIMULANT AND BIOPROTECTIVE PEPTIDES AND THEIR USE IN AGRICULTURE” (priority 2020, published 2023)

B1: PS1-120: recombinant peptide contained in the amino-terminal region of the Prosystemin polypeptide, free of Systemin; expressed in E. coli (protein)
chain: MGTPSYDIKNKGDDMQEEPKVKLHHEKGGDEKEKIIEKETPSQDINNKDTISSYVLRDDTQEIPKMEHEEGGYVKEKIVEKETISQYIIKIEGDDDAQEKLKVEYEEEEYEKEKIVEKET
modifications: Peptide PS1-120
notes: recombinant peptide contained in the amino-terminal region of the Prosystemin polypeptide, free of Systemin; expressed in E. coli
B2: PS1-70: recombinant peptide contained in the amino-terminal region of the Prosystemin polypeptide, free of Systemin; expressed in E. coli (protein)
chain: MGTPSYDIKNKGDDMQEEPKVKLHHEKGGDEKEKIIEKETPSQDINNKDTISSYVLRDDTQEIPKMEHEE
modifications: Peptide PS1-70
notes: as for B1

Columns and labels:
[1] = test system: Botrytis cinerea; assay: Botrytis cinerea necrosis areas on treated detached tomato leaves; assay type: in vivo, Botrytis cinerea on Solanum lycopersicum
Description: (§1) For the performance of assays on the phytopathogenic Botrytis cinerea and Alternaria alternata fungi, the present inventors used spores of this microorganism obtained from cultures on solid PDA (Potato Dextrose Agar) sporulation substrate. The plates were inoculated with 20 μl of a conidial suspension at a concentration of 1×10^6 spores/ml and incubated for 15 days at 25° C. in the presence of diffused light, so as to obtain complete sporulation. The spores were then collected in 5 ml of sterile water and, in order to remove the mycelium, were filtered through glass wool, washed with sterile distilled water and collected by centrifugation at room temperature. The concentration of spores suitable for inoculation (10^5-10^7 spores/ml) was determined by the serial dilution method using a Burker cell counting chamber for spore counting.
(§2) The assay was carried out on a detached leaf by taking a compound leaf for each treated tomato plant and for each control plant. Each leaflet of the compound leaf was marked with 3 markers in order to guide the subsequent application of the spores and detection of the pathogen developing necrotic areas.
The leaves were treated by applying 2 μl of a composition comprising the peptides PS1-70 and PS1-120 of the invention at a concentration of 100 pM, 100 fM or 1×PBS for the control leaves. After 6 hours, the time necessary for the perception of the peptides, the leaves were detached from the plant and inoculations with 10 μl of spore solution were carried out in the internerve spaces and near the previously marked points. Monitoring was carried out by measuring the necrosis areas (expressed in mm^2) 1, 3, 5, 8 days after inoculation of the pathogen. The necrosis areas recorded on the control leaves were much larger than those detected on plants treated with the peptides of the invention. This difference increased as a function of the time elapsed since inoculation. The resistance inducing effect of the picomolar treatment is already statistically significant from the first day of inoculation of the pathogen up to the eighth day where values of 33 mm^2 were reached on the control leaves, unlike the treated leaves where values not exceeding 18 mm^2 were recorded for both peptides (FIG. 12A).

[2] = test system: Botrytis cinerea; assay: Botrytis cinerea necrosis areas on treated eggplant leaves; assay type: in vivo, Botrytis cinerea on Solanum melongena; settings: day 8, control 11 mm^2 (FIG. 12C)
From the text: The present inventors also carried out tests aimed at determining the effects of exogenous application of the peptides of the invention, at picomolar and femtomolar concentrations, against the development of the necrotrophic fungus on Solanum melongena (eggplant) plants (FIG. 12C) and Vitis vinifera (vine) plants (FIG. 12D). […] The positive effect of the treatment was statistically significant from day 3 of inoculation of the pathogen to day 8 where values of 11 mm^2 were reached on the control leaves, unlike the treated leaves where values of 8.4 and 6.0 mm^2 were recorded on leaves treated with the peptides PS1-70 and PS1-120 at a concentration of 100 pM, and values of 6.2 and 4.10 mm^2 were recorded on leaves treated with said peptides at a concentration of 100 fM (FIG. 12C). Similar results were obtained on vine plants (FIG. 12D). The positive effect of the treatment was already statistically significant from day 1 of inoculation of the pathogen to day 8 where values of 43 mm^2 were reached on the control leaves, and values of 16.7 and 13.6 mm^2, respectively, were reached on leaves treated with the peptides PS1-70 and PS1-120 at a concentration of 100 pM, and values of 12 and 11.8 mm^2 were reached on leaves treated with said peptides at a concentration of 100 fM (FIG. 12D). Similar results were obtained on olive trees.

[3] = test system: Alternaria alternata; assay: Alternaria alternata necrosis areas on treated tomato leaves; assay type: in vivo; settings: 100 fM
Description: as §1, §2
The present inventors also performed assays aimed at determining the effects of exogenous application of the peptides of the invention on tomato plants against the development of the necrotrophic Alternaria alternata fungus (FIG. 14).
The positive effect of the treatment was statistically significant from day 1 of inoculation of the pathogen to day 8 where values of 24 mm^2 were reached on the control leaves, unlike the treated leaves where values of 8.4 and 8.0 mm^2 were recorded on leaves treated with the peptides PS1-70 and PS1-120 at a concentration of 100 fM (FIG. 14A); and values of 17 mm^2 were recorded on the control leaves and values of 8.3 mm^2, 7.9 mm^2, 8.9 mm^2, and 7.8 mm^2 were recorded on leaves treated with the peptides PS1-70, SEQ ID NO.8, SEQ ID NO.3 and SEQ ID NO.5, respectively, at a concentration of 100 fM (FIG. 14B).

[4] = test system: B. cinerea; assay: Seed treatment: B. cinerea necrosis areas on leaves of plants born from treated tomato seeds; assay type: in vivo, Botrytis cinerea on tomato; settings: leaves of 4-week-old plants born from seeds treated at 100 fM; day 8; control 11 mm^2 (FIG. 16)
Description: The mean necrosis areas were measured 1, 3 and 5 days after inoculation of the pathogen. The letters a, b indicate the statistical significance of the data (ANOVA), each letter representing a statistical group. The present inventors also assessed the protective effect conferred by the treatment with the peptides object of the invention directly on the seed. Tomato seeds were treated with a composition comprising the peptides at a concentration of 100 fM or with 1×PBS for the controls, allowed to dry and germinated in the dark on sterile adsorbent paper at 24° C. 4-week-old plant leaves were detached from the plant and inoculated with 10 μl of spore solution in the internerve spaces and near the previously marked points.

[5] = test system: S. littoralis larvae; parameters: species or system Spodoptera littoralis; settings: in vivo, po
[6] = test system: B. cinerea; assay type: cell-based, Botrytis cinerea
Description: 3, 5 and 8, and Trichoderma T22, (C) PS1-70 and PS1-120. The growth of the fungus was measured 24 hours after the addition of the peptides of the invention as the turbidity level of the medium (absorbance at 600 nm). The letters a, b indicate the statistical significance of the data (ANOVA), each letter representing a statistical group. Furthermore, as shown in FIGS. 22A and 22B, the growth of the B. cinerea fungus was not disrupted when the growth medium was added with the peptides PS1-70 and PS1-120 of the invention.

[7] = test system: CAT2, SAM and APX2 genes; assay: Salt stress gene expression in tomato plants irrigated with 100 fM peptides; assay type: in vivo; settings: femtomolar; for activation of salt stress-responsive genes: 8 days after irrigation, 0 mM NaCl (FIG. 18A1, B1, C1); for tolerance to salt / induction of responsive genes: irrigated 7 days with 150 mM NaCl (FIG. 18A2, B2, C2)
Description: The analysis was carried out on the CAT2(A), SAM (B) and APX2 (C) genes. The asterisks indicate the statistical significance of the data by Student's t-test (*p<0.05; **p<0.01; ***p<0.001). […] An experiment was also set up to verify the efficiency of the peptides PS1-70, PS1-120 and SEQ ID NO.5, when administered at femtomolar concentrations, in promoting tolerance to a high salt stress condition.

[8] = femtomolar, day 8, control 20 mm^2 (FIG. 12B)
[9] = day 8, control 24 mm^2 (FIG. 14A)

Row | Molecule | necrosis areas [1, 8] [mm^2] | necrosis areas ([2]; 100 pM) [mm^2] | necrosis areas ([2]; 100 fM) [mm^2] | necrosis areas [3, 9] [mm^2] | necrosis areas [4] [mm^2] | direct toxic effect on survival and development of larvae [5] | growth of the B. cinerea fungus [6] | activation of salt stress-responsive genes [7] | tolerance to salt / induction of responsive genes [7] | necrosis areas ([1]; 100 fM, day 8, control 11.72 mm^2 (FIG. 13)) [mm^2] | necrosis areas ([3]; day 8, control 17 mm^2 (FIG. 14B)) [mm^2]
1 | B1 | 5.19 | 6.0 | 4.10 | 8.0 | 7.4 | no effect on their survival and development | not disrupted | able to activate a series of salt stress-responsive genes | more salt-tolerant than the untreated control plants | – | –
2 | B2 | 6.69 | 8.4 | 6.2 | 8.4 | 7.1 | no effect on their survival and development | not disrupted | able to activate a series of salt stress-responsive genes | more salt-tolerant than the untreated control plants | 7.69 | 8.3
